The values that follow come from US20120077731A1 (Ablynx, published 2012).

Experiment [1] deals with T1, Human membrane IL-6R on cells (human, UniProt P08887 20-468).
T1 construct: whole, on cells; also called cell-surface expressed human IL-6R
T1 sequence (looked up): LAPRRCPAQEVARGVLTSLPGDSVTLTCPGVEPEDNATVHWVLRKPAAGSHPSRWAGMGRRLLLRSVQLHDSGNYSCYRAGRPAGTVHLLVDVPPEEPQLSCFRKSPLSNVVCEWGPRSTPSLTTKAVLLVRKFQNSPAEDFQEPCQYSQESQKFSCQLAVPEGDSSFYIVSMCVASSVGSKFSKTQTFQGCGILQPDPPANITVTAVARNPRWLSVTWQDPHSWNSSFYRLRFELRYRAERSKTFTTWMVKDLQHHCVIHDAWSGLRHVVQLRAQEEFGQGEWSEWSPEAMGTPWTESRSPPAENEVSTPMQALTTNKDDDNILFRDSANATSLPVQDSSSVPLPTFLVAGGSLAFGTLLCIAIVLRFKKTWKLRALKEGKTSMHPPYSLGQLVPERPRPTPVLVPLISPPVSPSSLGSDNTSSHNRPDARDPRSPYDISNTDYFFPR
Put plainly: flow cytometry, human PBL, granulocytes donor 2. (In general: Flow cytometry measures light scatter and fluorescence of single cells or particles in a stream.)

Experiment [2] deals with T1, Human membrane IL-6R on cells. Put plainly: cell-based or functional assay.
The target in experiment [3] is T2, OSM-R (UniProt Q99650 28-739, limits assumed).
T2 sequence (looked up): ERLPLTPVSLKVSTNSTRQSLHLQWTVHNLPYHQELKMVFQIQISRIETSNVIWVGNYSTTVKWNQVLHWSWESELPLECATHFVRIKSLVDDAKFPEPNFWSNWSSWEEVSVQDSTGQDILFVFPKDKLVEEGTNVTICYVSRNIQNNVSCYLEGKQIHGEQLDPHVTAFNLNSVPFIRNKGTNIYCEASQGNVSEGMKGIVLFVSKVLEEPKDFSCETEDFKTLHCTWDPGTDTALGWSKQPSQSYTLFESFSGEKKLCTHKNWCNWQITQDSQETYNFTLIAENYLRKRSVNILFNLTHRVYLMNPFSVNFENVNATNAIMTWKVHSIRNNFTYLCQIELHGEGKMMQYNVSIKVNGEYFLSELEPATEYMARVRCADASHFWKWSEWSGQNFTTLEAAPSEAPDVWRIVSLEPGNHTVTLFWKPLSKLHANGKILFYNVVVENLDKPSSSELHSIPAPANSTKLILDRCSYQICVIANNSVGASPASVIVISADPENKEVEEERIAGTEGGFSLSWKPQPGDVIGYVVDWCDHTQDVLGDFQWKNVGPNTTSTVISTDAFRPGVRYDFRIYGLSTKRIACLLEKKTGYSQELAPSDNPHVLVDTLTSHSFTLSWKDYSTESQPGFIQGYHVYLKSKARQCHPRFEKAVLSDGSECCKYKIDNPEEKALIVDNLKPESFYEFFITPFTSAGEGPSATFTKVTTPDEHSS
Put plainly: competitive binding ELISA: IL6R20A11 (0.05 nM) pre-incubated with a series of the receptor; free IL6R20A11 captured on sIL-6R and detected via anti-His. A general note: An ELISA detects its analyte on a solid surface through an enzyme-linked reagent.

The target in experiment [4] is T3, IL-11R/Fc (UniProt Q14626 23-370).
T3 construct: not shown: Fc part, not described
T3 sequence (looked up): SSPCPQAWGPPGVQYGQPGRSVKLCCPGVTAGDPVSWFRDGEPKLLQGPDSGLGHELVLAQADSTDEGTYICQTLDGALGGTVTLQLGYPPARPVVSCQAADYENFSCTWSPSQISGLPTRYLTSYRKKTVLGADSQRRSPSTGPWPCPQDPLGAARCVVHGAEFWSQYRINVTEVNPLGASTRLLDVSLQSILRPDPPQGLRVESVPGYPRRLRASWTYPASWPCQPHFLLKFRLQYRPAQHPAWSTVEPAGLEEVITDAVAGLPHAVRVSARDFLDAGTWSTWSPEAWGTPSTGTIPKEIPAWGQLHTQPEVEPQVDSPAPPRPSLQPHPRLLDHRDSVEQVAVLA
Described as above.

Experiment [5] has as its target T4, LIF-R (UniProt P42702 45-833, limits assumed).
T4 sequence (looked up): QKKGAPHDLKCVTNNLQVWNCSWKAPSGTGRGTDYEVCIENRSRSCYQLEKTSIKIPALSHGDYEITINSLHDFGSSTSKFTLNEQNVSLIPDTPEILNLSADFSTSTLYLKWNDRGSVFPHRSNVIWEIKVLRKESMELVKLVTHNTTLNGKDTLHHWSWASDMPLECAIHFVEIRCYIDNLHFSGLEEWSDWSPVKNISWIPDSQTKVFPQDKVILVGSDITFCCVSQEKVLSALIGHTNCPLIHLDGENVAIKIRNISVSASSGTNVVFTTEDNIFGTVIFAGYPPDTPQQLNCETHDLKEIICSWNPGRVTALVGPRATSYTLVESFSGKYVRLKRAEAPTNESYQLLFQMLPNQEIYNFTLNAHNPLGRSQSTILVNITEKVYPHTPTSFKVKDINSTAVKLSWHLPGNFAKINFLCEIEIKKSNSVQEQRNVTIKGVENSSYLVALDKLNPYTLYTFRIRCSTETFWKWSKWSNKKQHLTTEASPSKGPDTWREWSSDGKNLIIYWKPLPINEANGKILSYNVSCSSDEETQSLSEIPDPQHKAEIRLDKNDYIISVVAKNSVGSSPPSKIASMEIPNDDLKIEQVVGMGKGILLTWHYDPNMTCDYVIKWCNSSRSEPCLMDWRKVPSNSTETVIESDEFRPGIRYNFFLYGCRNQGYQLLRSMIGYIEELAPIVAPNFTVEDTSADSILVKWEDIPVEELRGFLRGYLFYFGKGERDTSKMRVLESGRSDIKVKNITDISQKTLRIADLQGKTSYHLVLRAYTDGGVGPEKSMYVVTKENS
The experiment is described as above.

The EC50 is the concentration needed to bring the measured effect to its halfway point. Read a low EC50 as a more potent agent.

B1: PMP20A11 (VHH)
VHH: EVQLVESGGGLVQPGGSLRLSCAASGSVFKINVMAWYRQAPGKGRELVAGIISGGSTSYADSVKGRFTISRDNAKNTLYLQMNSLRPEDTAVYYCAFITTESDYDLGRRYWGQGTLVTVSS
notes: also called IL6R20A11; IL6R300; not shown: c-myc and (His)6 tags
For the molecule B1, in experiment [1], the EC50 was found to be 5.61 nM. The “IC50 (nM), TF-1 proliferation at 100 IU/mL IL-6” value in experiment [2] turned out to be 0.283 nM. In addition, the binding result in experiment [3], in experiment [4] and in experiment [5] was “no binding (tested: 5 nM (log conc 0.7))” throughout.
